From publication PMC12856154

Biological target: persulfide dioxygenase from Pseudomonas aeruginosa (PaPDO) (Pseudomonas aeruginosa)
Test: SEC; Superdex 75 10/300, 20 mM Tris-HCl pH 8.0, 200 mM NaCl, 1 mL/min; calibrated with protein standards; elution at 10.8 mL

## persulfide dioxygenase from Pseudomonas aeruginosa (PaPDO) (enzyme)
  stoichiometry N: 2
